Article PMC8546600, “Chaperone Spy Protects Outer Membrane Proteins from Folding Stress via Dynamic Complex Formation” (mBio, 2021)
Positions count from the first letter of the chain named. Names may count otherwise.

Key:
Conditions in all cases: both partners purified
[1] = target: T1, His-LamB (Escherichia coli, UniProt P02943 26-446); assay: other fluorescence titration; intrinsic tryptophan fluorescence of the OMP (0.4 uM) titrated with increasing Spy or Skp; 40 mM HEPES, 150 mM NaCl, 0.24 M urea, pH 7.5; 25 C; excitation 295 nm, emission 305-400 nm
T1 construct: Unfolded: diluted from 8 M urea to 0.24 M urea for the assay; source: E. coli, from pET28b(+)-His-lamB, purified, kept in 8 M urea; not shown: 6xHis, N-terminal, kept

[2] = target: T2, His-OmpX (Escherichia coli, UniProt P0A917 24-171); assay: as above
T2 construct: Unfolded: diluted from 8 M urea to 0.24 M urea for the assay; source: E. coli, from pET28b(+)-His-ompX, purified, kept in 8 M urea; not shown: 6xHis, N-terminal, kept
T2 sequence (looked up): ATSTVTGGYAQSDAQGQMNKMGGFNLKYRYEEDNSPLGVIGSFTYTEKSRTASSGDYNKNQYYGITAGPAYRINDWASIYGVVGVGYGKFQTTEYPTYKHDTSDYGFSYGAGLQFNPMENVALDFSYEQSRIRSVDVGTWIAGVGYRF

[3] = target: T3, His-OmpA (Escherichia coli, UniProt P0A910 22-346); assay: as above
T3 construct: Unfolded: diluted from 8 M urea to 0.24 M urea for the assay; source: E. coli, from pET28b(+)-His-ompA, purified, kept in 8 M urea; not shown: 6xHis, N-terminal, kept
T3 sequence (looked up): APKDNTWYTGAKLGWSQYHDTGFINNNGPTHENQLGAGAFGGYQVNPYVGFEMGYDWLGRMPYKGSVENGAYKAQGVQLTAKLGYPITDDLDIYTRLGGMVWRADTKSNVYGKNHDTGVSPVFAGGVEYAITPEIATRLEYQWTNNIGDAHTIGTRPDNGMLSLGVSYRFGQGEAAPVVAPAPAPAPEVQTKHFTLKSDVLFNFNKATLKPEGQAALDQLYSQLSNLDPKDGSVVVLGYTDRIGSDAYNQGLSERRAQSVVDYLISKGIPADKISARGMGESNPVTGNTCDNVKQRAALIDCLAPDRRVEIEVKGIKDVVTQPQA

[4] = target: T4, His-OmpC (Escherichia coli, UniProt P06996 22-367); assay: as above
T4 construct: Unfolded: diluted from 8 M urea to 0.24 M urea for the assay; source: E. coli, from pET28b(+)-His-ompC, purified, kept in 8 M urea; not shown: 6xHis, N-terminal, kept
T4 sequence (looked up): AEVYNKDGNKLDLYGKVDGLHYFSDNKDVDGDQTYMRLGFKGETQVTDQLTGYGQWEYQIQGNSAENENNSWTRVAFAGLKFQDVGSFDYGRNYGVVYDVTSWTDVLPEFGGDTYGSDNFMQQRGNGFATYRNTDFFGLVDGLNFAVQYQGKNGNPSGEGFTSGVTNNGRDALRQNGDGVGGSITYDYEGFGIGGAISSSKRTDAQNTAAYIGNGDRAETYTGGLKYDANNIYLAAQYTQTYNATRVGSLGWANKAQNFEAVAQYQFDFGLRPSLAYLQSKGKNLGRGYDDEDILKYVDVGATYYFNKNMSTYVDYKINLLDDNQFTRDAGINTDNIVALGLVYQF

[5] = target: T5, untagged OmpX (Escherichia coli, UniProt P0A917 24-171); assay: NMR spectroscopy of assembled chaperone-OMP complexes; excess urea-denatured OMP added dropwise to the chaperone, supernatant concentrated; 2D [15N,1H]-TROSY or HSQC with one partner [U-2H,15N]-labelled; 25 mM MES, 50 mM NaCl, pH 6.5; 315 K (tOmpA-Spy also at 42, 26 and 15 C)
T5 construct: outer membrane protein OmpX of Escherichia coli; [U-2H,15N]-labelled in the TROSY experiments, unlabelled in the HSQC experiment with labelled Spy; source: E. coli, from pET28b(+)-ompX, purified from the insoluble pellet in 8 M urea (ion exchange)
T5 sequence (looked up): T2 sequence (looked up)

Measured: binding result

T1 sequence (P02943 26-446): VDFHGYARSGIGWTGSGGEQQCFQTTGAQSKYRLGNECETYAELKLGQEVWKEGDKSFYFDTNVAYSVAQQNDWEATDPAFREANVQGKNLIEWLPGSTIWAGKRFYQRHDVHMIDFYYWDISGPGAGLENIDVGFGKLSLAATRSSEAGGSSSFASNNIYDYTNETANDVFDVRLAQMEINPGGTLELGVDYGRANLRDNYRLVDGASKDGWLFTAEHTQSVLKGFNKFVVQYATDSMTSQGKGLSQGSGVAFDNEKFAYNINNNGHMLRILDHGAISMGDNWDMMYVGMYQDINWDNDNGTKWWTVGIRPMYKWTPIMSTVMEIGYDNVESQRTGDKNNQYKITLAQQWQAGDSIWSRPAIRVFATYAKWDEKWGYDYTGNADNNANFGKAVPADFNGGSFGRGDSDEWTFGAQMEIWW

B1: periplasmic chaperone Spy (natural protein, Escherichia coli, UniProt P77754 24-161, looked up)
chain: ADTTTAAPADAKPMMHHKGKFGPHQDMMFKDLNLTDAQKQQIREIMKGQRDQMKRPPLEERRAMHDIIASDTFDKVKAEAQIAKMEEQRKANMLAHMETQNKIYNILTPEQKKQFNANFEKRLTERPAAKGKMPATAE
notes: Spy, periplasmic chaperone of Escherichia coli; [U-2H,15N]-labelled in the HSQC experiment with unlabelled OmpX, unlabelled elsewhere; also called wild-type Spy; WT Spy; source: E. coli, from pET28b(+)-HisSUMO-spy, purified (6xHis-SUMO tag removed, cation exchange)
binds: all assays above

B2: Spy^Q100L (natural protein, Escherichia coli, UniProt P77754 24-161, looked up)
chain: B1 chain with Q100L
notes: Spy of Escherichia coli with Q100L; also called Q100L variant; source: E. coli, from pET28b(+)-HisSUMO-spy-Q100L, purified
binds: [5]

B3: seventeen-kilodalton protein (Skp) (natural protein, Escherichia coli, UniProt P0AEU7 21-161, looked up)
chain: ADKIAIVNMGSLFQQVAQKTGVSNTLENEFKGRASELQRMETDLQAKMKKLQSMKAGSDRTKLEKDVMAQRQTFAQKAQAFEQDRARRSNEERGKLVTRIQTAVKSVANSQDIDLVVDANAVAYNSSDVKDITADVLKQVK
notes: Skp, periplasmic chaperone of Escherichia coli; source: E. coli, from pET28b(+)-HisSUMO-skp, purified (6xHis-SUMO tag removed, cation exchange)
not listed: [5]
binds: all other assays above
